In this assay the target is YiiP from S. oneidensis (wild-type) (S. oneidensis, UniProt Q8E919). The assay is described as follows: SEC.
Sequence of YiiP from S. oneidensis (wild-type) (Q8E919 whole entry): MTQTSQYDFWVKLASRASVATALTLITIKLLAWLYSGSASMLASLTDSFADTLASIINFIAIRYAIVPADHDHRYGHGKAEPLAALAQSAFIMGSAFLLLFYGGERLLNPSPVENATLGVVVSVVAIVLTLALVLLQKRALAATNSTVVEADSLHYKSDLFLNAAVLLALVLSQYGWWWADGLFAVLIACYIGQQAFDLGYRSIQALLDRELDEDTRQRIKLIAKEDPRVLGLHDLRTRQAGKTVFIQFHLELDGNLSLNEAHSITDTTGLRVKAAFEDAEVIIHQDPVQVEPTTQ

B1: Fab2 (Fab, V domains shown)
VH: EVQLVESGGGLVQPGGSLRLSCAASGFTIYSSSIHWVRQAPGKGLEWVASIYSSSGSTYYADSVKGRFTISADTSKNTAYLQMNSLRAEDTAVYYCARQSYSGLSPRRHWSYGAMDYWGQGTLVTVSS
VL: DIQMTQSPSSLSASVGDRVTITCRASQSVSSAVAWYQQKPGKAPKLLIYSASSLYSGVPSRFSGSRSGTDFTLTISSLQPEDFATYYCQQIWSWPLITFGQGTKVEIK
Turning to B1, the binding result is on record as “binds”.

Values taken from paper doi:10.1101/2020.12.29.424758 (bioRxiv, 2020).
